Target: T1, bovine serum albumin (BSA) (bovine, UniProt P02769 25-607)
T1 construct: Control protein for non-specific adsorption to the ASF-SPR chip
Test: SPR, ASF-immobilised chip, BSA in solution
Experimental: The ASF-SPR chip was prepared starting with a 50 nm gold-coated SF10 glass substrate. The first SAM layer was self-assembled using a mixed ethanolic solution of 5×10⁻⁵ M cysteamine (NH₂ terminated thiol) (Sigma-Aldrich, Sydney, Australia) and 4.5×10⁻⁴ M mercaptoethanol (OH terminated thiol, as spacers) (Sigma-Aldrich, Sydney, Australia) for 15 h at room temperature. The second layer of biotin was introduced by coupling biotin-hexanoic acid (Sigma-Aldrich, Sydney, Australia) with cysteamine by activating 1 mg/ml biotin-hexanoic acid in PBS (prepared from a 6 mg/mL stock in dimethylformamide (DMF, Sigma-Aldrich, Sydney, Australia) with 4 mg/mL of 1-(3-dimethylaminopropy)-3-ethylcarbodiimide hydrochloride (EDC, Sigma-Aldrich, Sydney, Australia) and 0.7 mg/mL of N-hydroxysuccinimide (NHS, Sigma-Aldrich, Sydney, Australia). The third layer (of SA) was constructed by loading 45 μg/mL of SA (Invitrogen, Mount Waverley, Australia) into the flow cell, which specifically binds to biotin. This step took about 10 min to reach equilibrium. The SA layer was then activated by 4 mg/mL EDC and 0.7 mg/mL NHS for 5 min, enabling its carboxylic acid residue to react with the primary amino group of ASF (Sigma-Aldrich, Sydney, Australia). 1.0 mg/mL ASF was used in this step to prepare the fourth layer. […]

T1 sequence (P02769 25-607 limits assumed): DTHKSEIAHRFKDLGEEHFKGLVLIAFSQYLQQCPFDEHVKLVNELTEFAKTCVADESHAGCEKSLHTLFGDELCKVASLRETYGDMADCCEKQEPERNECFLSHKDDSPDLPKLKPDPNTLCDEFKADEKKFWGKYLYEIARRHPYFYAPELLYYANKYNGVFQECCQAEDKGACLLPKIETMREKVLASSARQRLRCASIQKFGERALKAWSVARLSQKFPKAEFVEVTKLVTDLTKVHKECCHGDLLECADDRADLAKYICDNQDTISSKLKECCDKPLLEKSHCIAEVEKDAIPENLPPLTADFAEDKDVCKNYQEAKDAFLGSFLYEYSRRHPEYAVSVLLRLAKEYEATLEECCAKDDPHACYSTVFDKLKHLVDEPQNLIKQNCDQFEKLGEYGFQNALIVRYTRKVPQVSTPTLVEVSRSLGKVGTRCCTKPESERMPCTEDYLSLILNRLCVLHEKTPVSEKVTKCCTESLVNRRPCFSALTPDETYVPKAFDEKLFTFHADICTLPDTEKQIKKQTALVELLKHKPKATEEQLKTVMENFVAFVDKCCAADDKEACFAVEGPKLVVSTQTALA

B1: asialofetuin (ASF) (other, UniProt P12763 19-359, looked up)
chain: IPLDPVAGYKEPACDDPDTEQAALAAVDYINKHLPRGYKHTLNQIDSVKVWPRRPTGEVYDIEIDTLETTCHVLDPTPLANCSVRQQTQHAVEGDCDIHVLKQDGQFSVLFTKCDSSPDSAEDVRKLCPDCPLLAPLNDSRVVHAVEVALATFNAESNGSYLQLVEISRAQFVPLPVSVSVEFAVAATDCIAKEVVDPTKCNLLAEKQYGFCKGSVIQKALGGEDVRVTCTLFQTQPVIPQPQPDGAEAEAPSAVPDAAGPTPSAAGPPVASVVVGPSVVAVPLPLHRAHYDLRHTFSGVASVESSSGEAFHVGKTPIVGQPSIPGGPVRLCPGRIRYFKI
modifications: three triantennary N-link oligosaccharide chains with terminal N-acetyllactosamine (LacNAC) residues and three O-linked disaccharide chains (desialylated)
notes: Immobilised on a home-made SPR chip (thiol-SAM/biotin/streptavidin/ASF) by EDC/NHS coupling to streptavidin; also called asiolofetuin
binding result: no binding (tested: 4.4 mg/mL)

— patent US20110129485A1 (UNIVERSITY OF QUEENSLAND, published 2011)
